The values that follow are results of earlier work, collected in patent US20220370374A1, “TRANSDERMAL ABSORPTION-TYPE PATCH” (KYUSHU UNIVERSITY, NATIONAL UNIVERSITY CORPORATION, priority 2019, published 2022).

Like-named read-outs stand apart in the source and are kept apart here.

In the case of `C[C@@H](O)[C@@H]1NC(=O)[C@H](CCCCN)NC(=O)[C@@H](Cc2c[nH]c3ccccc23)NC(=O)[C@H](Cc2ccccc2)NC(=O)[C@@H](NC(=O)[C@H](N)Cc2ccccc2)CSSC[C@@H](C(=O)N[C@H](CO)[C@@H](C)O)NC1=O` [Octreotide acetate], the solubility result is, setting by setting: (in ethanol, acetic acid, or N-methylpyrrolidone) “freely soluble”; (in water) “Extremely soluble”.

For Leuprorelin, the solubility entry is “slightly insoluble” (in ethanol), “soluble” (in methanol) and “freely soluble” (in water or acetic acid).
